For three molecules, binding result, IC50 and Kd results are on record in patent publication US7122624 (dated 2006).

Assay [1] addresses glucagon receptor (human, UniProt P47871). Put plainly: competition, COS-7 cells, up to 1 uM.
The target of assay [2] is T1, PTH2 receptor (human).
T1 chain: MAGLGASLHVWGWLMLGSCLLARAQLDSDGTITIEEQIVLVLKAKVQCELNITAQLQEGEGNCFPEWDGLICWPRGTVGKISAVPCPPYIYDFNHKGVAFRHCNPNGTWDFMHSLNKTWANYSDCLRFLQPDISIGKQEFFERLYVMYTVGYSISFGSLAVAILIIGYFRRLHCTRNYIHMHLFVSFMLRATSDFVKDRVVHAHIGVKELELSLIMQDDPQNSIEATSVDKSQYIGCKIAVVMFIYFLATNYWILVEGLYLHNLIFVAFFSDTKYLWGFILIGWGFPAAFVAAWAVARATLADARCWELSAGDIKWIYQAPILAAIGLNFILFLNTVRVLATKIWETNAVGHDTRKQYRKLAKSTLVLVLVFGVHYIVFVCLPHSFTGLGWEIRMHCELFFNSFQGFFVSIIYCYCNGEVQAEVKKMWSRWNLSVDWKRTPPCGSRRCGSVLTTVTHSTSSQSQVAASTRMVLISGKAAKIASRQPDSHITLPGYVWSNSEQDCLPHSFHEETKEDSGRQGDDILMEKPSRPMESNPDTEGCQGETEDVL
Put plainly: competition, [125I]TIP39, 10 uM GTPgS, HEK293 membranes.

For assay [3], the target named is T2, PTH1 receptor (human, UniProt Q03431).
T2 chain: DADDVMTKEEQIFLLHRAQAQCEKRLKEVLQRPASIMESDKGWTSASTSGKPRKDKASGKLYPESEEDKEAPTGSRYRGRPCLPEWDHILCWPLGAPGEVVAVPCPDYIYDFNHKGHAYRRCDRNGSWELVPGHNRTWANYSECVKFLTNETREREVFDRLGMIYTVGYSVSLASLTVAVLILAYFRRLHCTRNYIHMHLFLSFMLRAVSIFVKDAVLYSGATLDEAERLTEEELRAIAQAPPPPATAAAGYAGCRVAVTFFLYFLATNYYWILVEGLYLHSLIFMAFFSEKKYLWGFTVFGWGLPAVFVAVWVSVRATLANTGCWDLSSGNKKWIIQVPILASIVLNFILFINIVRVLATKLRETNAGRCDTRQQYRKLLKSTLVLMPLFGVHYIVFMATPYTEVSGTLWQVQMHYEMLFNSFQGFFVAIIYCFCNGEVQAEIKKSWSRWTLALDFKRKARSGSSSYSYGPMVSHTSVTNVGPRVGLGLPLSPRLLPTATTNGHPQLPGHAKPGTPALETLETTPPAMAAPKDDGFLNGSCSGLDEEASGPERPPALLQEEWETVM
Put plainly: competition, [125I]rPTH(1-34), 10 uM GTPgS, HEK293 membranes.

Assay [4] deals with T2, PTH1 receptor. In words: other, radioligand kinetics, HEK293 membranes, 21C.
Assay [5] has as its target T2, PTH1 receptor. Put plainly: other, radioligand saturation, HEK293 membranes, 21C.

No end group written: not given here.

The IC50 is the concentration at which inhibition is half-maximal. For orientation: Kd means a measure of binding affinity in units of concentration. Higher therefore signals weaker binding.

Chain of glucagon receptor (P47871 26-477): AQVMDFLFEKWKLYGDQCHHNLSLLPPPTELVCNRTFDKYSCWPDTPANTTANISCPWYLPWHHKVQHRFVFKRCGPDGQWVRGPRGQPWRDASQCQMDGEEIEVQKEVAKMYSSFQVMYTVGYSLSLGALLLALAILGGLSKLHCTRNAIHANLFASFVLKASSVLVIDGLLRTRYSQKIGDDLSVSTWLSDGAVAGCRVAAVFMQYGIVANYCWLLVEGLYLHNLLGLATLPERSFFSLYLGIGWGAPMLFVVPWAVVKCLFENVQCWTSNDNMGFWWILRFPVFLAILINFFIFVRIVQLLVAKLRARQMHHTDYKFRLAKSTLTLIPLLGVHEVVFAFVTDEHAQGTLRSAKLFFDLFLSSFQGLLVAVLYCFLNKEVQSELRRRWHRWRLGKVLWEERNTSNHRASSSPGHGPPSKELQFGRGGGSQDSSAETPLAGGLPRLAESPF

B1: TIP39 (peptide)
chain: SLALADDAAFRERARLLAALERRHWLNSYMHKLLVLDAP
As for B1, the binding result in assay [1] was “no binding”.

B2: TIP(7-39) (peptide)
chain: DAAFRERARLLAALERRHWLNSYMHKLLVLDAP
Turning to B2, the figures for the concentration for half-maximal inhibition (IC50) in assay [2] and in assay [3] were 98 nM and 5 nM, respectively.

B3: [125I]TIP(7-39) (peptide)
chain: DAAFRERARLLAALERRHWLNSYMHKLLVLDAP
modifications: also: 125I label, site not given here
In the case of B3, the Kd is 0.57 nM in assay [4] and 1.3 nM in assay [5].
